Assay [1] addresses Human PSMA on prostate cancer cell lines (C4-2B, 22RV1) (human, UniProt Q04609 1-750). In words: cell-based or functional assay.
Assay [2] deals with Human CD3 on T cells / Jurkat cells (human, UniProt P07766 23-207). In words: cell-based or functional assay.

The text below walks through data of patent US20240059789A1 (Janssen / Centocor, published 2024).

Where a chain is given by its changes, count along the chain named.

Chain of Human CD3 on T cells / Jurkat cells (P07766 23-207 limits assumed): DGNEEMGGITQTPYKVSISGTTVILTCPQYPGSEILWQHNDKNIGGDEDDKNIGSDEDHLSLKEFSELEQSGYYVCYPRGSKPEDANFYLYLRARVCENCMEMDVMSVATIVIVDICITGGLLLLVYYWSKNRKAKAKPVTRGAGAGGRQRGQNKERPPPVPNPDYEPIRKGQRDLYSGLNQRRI
Chain of Human PSMA on prostate cancer cell lines (C4-2B, 22RV1) (Q04609 whole entry): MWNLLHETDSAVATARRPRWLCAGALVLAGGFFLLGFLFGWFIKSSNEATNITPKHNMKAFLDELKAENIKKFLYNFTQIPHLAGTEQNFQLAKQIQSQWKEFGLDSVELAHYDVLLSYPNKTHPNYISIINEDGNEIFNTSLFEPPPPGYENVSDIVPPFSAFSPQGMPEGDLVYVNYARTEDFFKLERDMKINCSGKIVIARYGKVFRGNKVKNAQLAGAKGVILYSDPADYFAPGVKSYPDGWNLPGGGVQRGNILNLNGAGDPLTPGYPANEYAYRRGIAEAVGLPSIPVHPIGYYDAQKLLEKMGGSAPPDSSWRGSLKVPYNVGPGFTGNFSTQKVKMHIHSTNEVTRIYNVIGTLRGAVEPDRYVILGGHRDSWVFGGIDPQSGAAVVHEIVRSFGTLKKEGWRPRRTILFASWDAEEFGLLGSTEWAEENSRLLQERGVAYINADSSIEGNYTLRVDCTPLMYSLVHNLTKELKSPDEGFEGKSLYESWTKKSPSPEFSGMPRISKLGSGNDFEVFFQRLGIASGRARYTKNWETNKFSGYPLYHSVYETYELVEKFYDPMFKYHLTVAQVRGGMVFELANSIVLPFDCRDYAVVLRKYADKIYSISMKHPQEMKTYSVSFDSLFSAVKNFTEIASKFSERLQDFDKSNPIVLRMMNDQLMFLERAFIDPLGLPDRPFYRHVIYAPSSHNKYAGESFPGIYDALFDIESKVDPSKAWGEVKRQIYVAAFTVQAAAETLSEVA

B1: PS3B931 (bispecific antibody, human IgG1, kappa, lambda, L234A L235A)
heavy 1: EVQLVESGGGLVKPGGSLRLSCAASGFTFSRYNMNWVRQAPGKGLEWVSSISTSSNYIYYADSVKGRFTFSRDNAKNSLDLQMSGLRAEDTAIYYCTRGWGPFDYWGQGTLVTVSSASTKGPSVFPLAPSSKSTSGGTAALGCLVKDYFPEPVTVSWNSGALTSGVHTFPAVLQSSGLYSLSSVVTVPSSSLGTQTYICNVNHKPSNTKVDKKVEPKSCDKTHTCPPCPAPEAAGGPSVFLFPPKPKDTLMISRTPEVTCVVVSVSHEDPEVKFNWYVDGVEVHNAKTKPREEQYNSTYRVVSVLTVLHQDWLNGKEYKCKVSNKALPAPIEKTISKAKGQPREPQVYTLPPSREEMTKNQVSLTCLVKGFYPSDIAVEWESNGQPENNYKTTPPVLDSDGSFLLYSKLTVDKSRWQQGNVFSCSVMHEALHNHYTQKSLSLSP
light 1: DIQMTQSPSSLSASVGDRVTITCRARQSIGTAIHWYQQKPGKAPKLLIKYASESISGVPSRFSGSGSGTDFTLTISSLQPEDFATYYCQQSGSWPYTFGQGTKLEIKRTVAAPSVFIFPPSDEQLKSGTASVVCLLNNFYPREAKVQWKVDNALQSGNSQESVTEQDSKDSTYSLSSTLTLSKADYEKHKVYACEVTHQGLSSPVTKSFNRGEC
heavy 2: EVQLVESGGGLVKPGGSLRLSCAASGFTFSRYNMNWVRQAPGKGLEWVSSINSNSRYIYYADSVKGRFTISRDSAKNSLYLQMNSLRAEDTAVYYCAKTMGDYYYYYGMDVWGQGTTVTVSSASTKGPSVFPLAPSSKSTSGGTAALGCLVKDYFPEPVTVSWNSGALTSGVHTFPAVLQSSGLYSLSSVVTVPSSSLGTQTYICNVNHKPSNTKVDKKVEPKSCDKTHTCPPCPAPEAAGGPSVFLFPPKPKDTLMISRTPEVTCVVVSVSHEDPEVKFNWYVDGVEVHNAKTKPREEQYNSTYRVVSVLTVLHQDWLNGKEYKCKVSNKALPAPIEKTISKAKGQPREPQVYTLPPSREEMTKNQVSLTCLVKGFYPSDIAVEWESNGQPENNYKTTPPVLDSDGSFFLYSRLTVDKSRWQQGNVFSCSVMHEALHNHYTQKSLSLSPG
light 2: SSELTQPPSVSGAPGQRVTISCAGSLSNIGAGYDVHWYQQLPGTAPKLLIYGNINRLSGVPERFSGSKSGTSASLAITGLQAEDGADYYCQSYDSSLSSYVFGTGTKVTVLGQPKAAPSVTLFPPSSEELQANKATLVCLISDFYPGAVTVAWKADSSPVKAGVETTTPSKQSNNKYAASSYLSLTPEQWKSHRSYSCQVTHEGSTVEKTVAPTECS
As to B1, the “Tumor killing EC50 [M] (C4-2B + PAN-T cells, 72 h, flow cytometry)” value (from here on “Tumor killing EC50 [M]”) in assay [1] was determined as 1e-08 M. Further, the “T cell activation EC50 [M] (CD25+ T cells, C4-2B co-culture, 72 h)” value (shortened to “T cell activation EC50 [M]”) in assay [2] was 1e-08 M.

B2: PS3B926 (bispecific antibody, human IgG1, kappa, lambda, L234A L235A)
heavy 1: B1 heavy 1
light 1: B1 light 1
heavy 2: not shown
light 2: not shown
For the molecule B2, the “Tumor killing EC50 [M]” value in assay [1] was 4.78e-11 M. For the same molecule, the “T cell activation EC50 [M]” value in assay [2] was determined as 3.45e-11 M.

B3: PS3B928 (bispecific antibody, human IgG1, kappa, lambda, L234A L235A)
heavy 1: B1 heavy 1
light 1: B1 light 1
heavy 2: not shown
light 2: not shown
B3: the “Tumor killing EC50 [M]” value in assay [1] stood at 4.81e-10 M. In assay [2], the “T cell activation EC50 [M]” value was determined as 1.84e-10 M.

B4: PS3B921 (bispecific antibody, human IgG1, lambda, L234A L235A)
heavy 1: QVQLQQSGPRLVRPSQTLSLTCAISGDSVFNNNAAWSWIRQSPSRGLEWLGRTYYRSKWLYDYAVSVKSRITVNPDTSRNQFTLQLNSVTPEDTALYYCARGYSSSFDYWGQGTLVTVSSASTKGPSVFPLAPSSKSTSGGTAALGCLVKDYFPEPVTVSWNSGALTSGVHTFPAVLQSSGLYSLSSVVTVPSSSLGTQTYICNVNHKPSNTKVDKKVEPKSCDKTHTCPPCPAPEAAGGPSVFLFPPKPKDTLMISRTPEVTCVVVSVSHEDPEVKFNWYVDGVEVHNAKTKPREEQYNSTYRVVSVLTVLHQDWLNGKEYKCKVSNKALPAPIEKTISKAKGQPREPQVYTLPPSREEMTKNQVSLTCLVKGFYPSDIAVEWESNGQPENNYKTTPPVLDSDGSFLLYSKLTVDKSRWQQGNVFSCSVMHEALHNHYTQKSLSLSPG
light 1: QSALTQPASVSGSPGQSITISCTGTSSNIGTYKFVSWYQQHPDKAPKVLLYEVSKRPSGVSSRFSGSKSGNTASLTISGLQAEDQADYHCVSYAGSGTLLFGGGTKLTVLGQPKAAPSVTLFPPSSEELQANKATLVCLISDFYPGAVTVAWKADSSPVKAGVETTTPSKQSNNKYAASSYLSLTPEQWKSHRSYSCQVTHEGSTVEKTVAPTECS
heavy 2: EVQLVESGGGLVQPGGSLRLSCAASGFTFSSYAMSWVRQAPGKGLEWVSAISGGIGSTYYADSVKGRFTISRDNSKNTLWLQMNSLRAEDTAVYYCAKDGVGATPYYFDYWGQGTLVTVSSASTKGPSVFPLAPSSKSTSGGTAALGCLVKDYFPEPVTVSWNSGALTSGVHTFPAVLQSSGLYSLSSVVTVPSSSLGTQTYICNVNHKPSNTKVDKKVEPKSCDKTHTCPPCPAPEAAGGPSVFLFPPKPKDTLMISRTPEVTCVVVSVSHEDPEVKFNWYVDGVEVHNAKTKPREEQYNSTYRVVSVLTVLHQDWLNGKEYKCKVSNKALPAPIEKTISKAKGQPREPQVYTLPPSREEMTKNQVSLTCLVKGFYPSDIAVEWESNGQPENNYKTTPPVLDSDGSFFLYSRLTVDKSRWQQGNVFSCSVMHEALHNHYTQKSLSLSPG
light 2: QSVLTQPPSVSAAPGQKVTISCSGSSSNIGINYVSWYQQLPGTAPKLLIYDNNKRPSGIPDRFSGSKSGTSATLGITGLQTGDEADYYCGTWDSSLSAVVFGGGTKLTVLGQPKAAPSVTLFPPSSEELQANKATLVCLISDFYPGAVTVAWKADSSPVKAGVETTTPSKQSNNKYAASSYLSLTPEQWKSHRSYSCQVTHEGSTVEKTVAPTECS
Regarding B4, the “Tumor killing EC50 [M]” value in assay [1] turned out to be 3.11e-11 M. In addition, in assay [2], the “T cell activation EC50 [M]” value was 2.11e-11 M.

B5: PS3B918 (bispecific antibody, human IgG1, lambda, L234A L235A)
heavy 1: B4 heavy 1
light 1: B4 light 1
heavy 2: B1 heavy 2
light 2: B1 light 2
For the molecule B5, the “Tumor killing EC50 [M]” value in assay [1] came out at 1e-08 M. In assay [2], the “T cell activation EC50 [M]” value came to 1e-08 M.

B6: PS3B932 (bispecific antibody, human IgG1, kappa, lambda, L234A L235A)
heavy 1: B1 heavy 1
light 1: B1 light 1
heavy 2: B4 heavy 2
light 2: B4 light 2 with I31N, V99Y, G103T, L107V
As to B6, in assay [1], the “Tumor killing EC50 [M]” value turned out to be 6.42e-12 M. Also, in assay [2], the “T cell activation EC50 [M]” value was 1.2e-11 M.

B7: PS3B922 (bispecific antibody, human IgG1, lambda, L234A L235A)
heavy 1: B4 heavy 1
light 1: B4 light 1
heavy 2: B4 heavy 2 with I55S, W80Y, T91S
light 2: B4 light 2
For B7, the “Tumor killing EC50 [M]” value in assay [1] turned out to be 7.79e-11 M. In addition, in assay [2], the “T cell activation EC50 [M]” value was 5.85e-11 M.
